The assay has as its target GST-tagged human eIF1AX (known as eIF1A), full length (human, UniProt P47813 1-144). Description: pull-down.

Sequence of GST-tagged human eIF1AX (known as eIF1A), full length (P47813 whole entry): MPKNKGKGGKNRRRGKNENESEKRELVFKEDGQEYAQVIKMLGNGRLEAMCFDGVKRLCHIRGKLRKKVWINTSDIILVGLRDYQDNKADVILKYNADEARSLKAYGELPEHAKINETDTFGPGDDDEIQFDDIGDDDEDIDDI

B1: His-SMT3-tagged MID(432 ~ 575aa) of human Ago2 (domain or fragment)
chain: not shown
With B1, the binding result is listed as “binds”.

For the origin of these results see publication PMC4448125 (Nature communications, 2015).
